# Results reported in patent publication US20150285801.
# Test system: GST-topo I
# Sequence (chain, as listed by the source): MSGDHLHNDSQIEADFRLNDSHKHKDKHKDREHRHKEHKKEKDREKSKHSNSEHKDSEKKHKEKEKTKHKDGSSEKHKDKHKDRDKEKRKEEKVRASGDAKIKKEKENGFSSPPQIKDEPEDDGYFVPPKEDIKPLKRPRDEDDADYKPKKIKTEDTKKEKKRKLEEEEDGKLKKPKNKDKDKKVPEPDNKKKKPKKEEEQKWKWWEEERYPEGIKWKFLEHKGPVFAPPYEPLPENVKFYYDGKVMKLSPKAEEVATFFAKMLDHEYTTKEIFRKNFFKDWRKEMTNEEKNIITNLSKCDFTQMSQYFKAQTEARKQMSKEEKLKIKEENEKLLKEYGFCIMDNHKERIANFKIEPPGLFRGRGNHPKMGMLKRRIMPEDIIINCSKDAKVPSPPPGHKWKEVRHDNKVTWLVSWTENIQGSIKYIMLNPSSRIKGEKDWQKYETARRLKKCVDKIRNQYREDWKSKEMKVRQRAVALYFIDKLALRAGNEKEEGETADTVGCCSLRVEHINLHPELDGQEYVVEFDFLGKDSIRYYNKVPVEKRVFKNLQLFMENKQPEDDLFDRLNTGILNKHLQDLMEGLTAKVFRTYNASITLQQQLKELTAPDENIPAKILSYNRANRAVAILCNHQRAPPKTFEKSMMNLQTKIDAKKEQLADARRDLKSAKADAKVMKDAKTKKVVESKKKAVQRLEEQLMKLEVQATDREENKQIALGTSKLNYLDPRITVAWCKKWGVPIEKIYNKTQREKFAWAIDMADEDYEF
substance,measurement,value
BRCA1/BARD1 (E3),"in vitro ubiquitination, immunoblot with anti-ubiquitin",topo I is ubiquitinated by BRCA1
